# Experimental data published in the RNAGym collection of RNA variant scans (doi:10.7554/elife.80360).
# B1: Twister Ribozyme (parent)
# chain: AACACUGCCAAUGCCGGUCCCAAGCCCGGAUAAAAGUGGAGGGGGCGG
# Variants of: B1
# Assay: self-cleavage, relative activity (ratio to wild type); higher = more cleavage; co-transcriptional
row,Variant,self-cleavage
1,G17A G36A,0.141
2,G17A G36C,0.118
3,G17A G36U,0.108
4,G17A C46G,0.592
5,G17A C46A,0.322
6,G17A C46U,0.774
7,C15U C21A,0.138
8,C15U C21U,0.101
9,C15G G39A,0.0759
10,C15G U18A,0.04
11,C15G U18C,0.048
12,G16C G29C,0.117
13,G16C G29A,0.222
14,C15U G48C,1.07
15,G16C G17A,0.124
16,G17C C26G,0.446
17,G17A G41U,0.169
18,G17A G41A,0.148
19,G16A A33G,0.892
20,C15G G38U,0.0777
21,C15G G38C,0.0527
22,C15U C46U,0.917
23,G16U G36C,0.156
24,G17A A30C,0.275

row,Variant,self-cleavage
1,G17A G48U,0.603
2,G17A G48C,0.724
3,C15U C26U,0.117
4,C15U C26G,0.0693
5,G17A A32U,0.476
6,G17A A32G,0.6
7,G17A A32C,0.303
8,G16U G17A,0.0957
9,G16U G17U,0.231
10,G16A C20A,0.12
11,G16A C20U,0.837
12,G17A A34C,0.0806
13,G16U G44A,1.01
14,G16U G44C,1.05
15,G16U G44U,1.14
16,G16C U37G,0.134
17,G16A C21A,0.104
18,G17A A23C,0.0909
19,G17A A23U,0.28
20,G17A A23G,0.0743
21,G17A A33C,0.384
22,G17A A33U,0.614
23,C15U G24U,0.122
24,G16A G24A,0.0954

row,Variant,self-cleavage
1,G16U C46A,0.662
2,G16U C46U,1.02
3,G16A G44C,0.871
4,G17C G29C,0.0728
5,C15G G16C,0.305
6,C15G G16U,0.814
7,C15U G17C,0.0992
8,G16A G42A,0.358
9,G16A G42U,0.197
10,G17C G44U,0.124
11,C15U A34G,0.806
12,G16C G28C,0.306
13,G16C G39U,0.144
14,G17A C26U,0.923
15,G17C C20U,0.0836
16,G17C C20A,0.0695
17,G17C U37C,0.0657
18,G17C U37A,0.0865
19,G16A A35U,1.05
20,G16A A35G,0.555
21,G16A A35C,0.927
22,G16A C27U,1.17
23,G16A C27A,0.858
24,G16A U31G,0.996

row,Variant,self-cleavage
1,C15G G28A,0.624
2,C15G G28C,0.599
3,G16A A22U,0.631
4,G16A A22C,0.941
5,G16A A22G,0.155
6,G16C U31C,0.429
7,G16C U31A,0.657
8,G16C G36A,0.188
9,G16C G41A,0.143
10,C15G G36C,0.0921
11,C15G G36U,0.0831
12,G16U C27U,1.16
13,G16U C27G,0.941
14,G16U G39C,0.173
15,G16U A35G,0.765
16,G16U A35U,0.948
17,G16U A35C,0.961
18,G17C U18G,0.0748
19,G17C U18A,0.0862
20,G17A G45A,0.386
21,G17A G45U,0.147
22,G16C A35U,0.577
23,G16C A35G,0.483
24,C15G G48C,0.0718

row,Variant,self-cleavage
1,G16C G38U,0.535
2,G16C G38A,0.676
3,G17C G42C,0.11
4,G17C G42A,0.0674
5,G17A G47A,0.297
6,G17A G47U,0.489
7,G17A G47C,0.224
8,C15G G17A,0.326
9,C15G G17U,0.319
10,C15G G17C,0.157
11,C15U G43C,0.125
12,C15U G43A,0.225
13,G17A U31G,0.706
14,G17A G39A,0.153
15,G17C A23C,0.092
16,G17C A23G,0.0841
17,G17C A23U,0.0824
18,C15U A22U,0.703
19,C15U A22C,0.932
20,G16U C20A,0.109
21,G16U C20G,0.098
22,G16U C20U,0.797
23,G16A U18C,0.41
24,G16A U18A,0.482

row,Variant,self-cleavage
1,G16U A40C,0.156
2,G16U A40U,0.137
3,G16C A33C,0.427
4,G16C A33U,0.359
5,C15G G44A,0.0802
6,C15U G41U,0.452
7,C15U G41A,0.483
8,G16A C19U,0.826
9,G16A C19A,0.241
10,G16U G24C,0.118
11,G16A A30G,0.958
12,G16A A30C,0.91
13,G16U A32C,1.1
14,G16C C20U,0.489
15,G16A G45U,0.858
16,G16A G45C,0.595
17,C15U A40G,0.162
18,C15U A40U,0.15
19,C15U A40C,0.148
20,G17C A22C,0.123
21,G17C A22U,0.0369
22,G16A A34G,0.574
23,G16A A34C,0.174
24,G17A U18A,0.18

row,Variant,self-cleavage
1,G17A U18C,0.221
2,G17A U18G,0.123
3,G17C G36U,0.0484
4,G17C G36C,0.0812
5,C15U U37A,0.559
6,C15U U37G,0.568
7,C15U U37C,0.295
8,G16A G43A,0.261
9,G16A C25G,0.298
10,G16A C25A,0.117
11,G17C G38C,0.054
12,G17C G38A,0.0789
13,G16A C46G,0.813
14,G16U G45A,0.608
15,G16C G48U,0.414
16,G16C G48C,0.709
17,G16C G48A,0.473
18,G16U C19U,0.697
19,G16U C19A,0.284
20,G16U C19G,0.342
21,G16C C19G,0.1
22,G16A G36C,0.133
23,G16A G36U,0.174
